Measurements as given in publication PMC7873564.

Biological target: mouse IgMκ paraprotein TEPC183
Assay: flow cytometry on cells
Conditions: mean ± 1 SD from three independent experiments; parent: est. 3.7; read off a plot

“human IgM Fc receptor (FcµR), wild type (from UniProt O60667-1) N66del” was tested, and the response (MFI index (x10^2)) was 2.1.
